Measurements as given in paper PMC10786891, “Massively parallel profiling of RNA-targeting CRISPR-Cas13d”.
Where a chain is given by its changes, count along the chain named. Numbers in names are those of the source.

T1: EsCas13d, nuclease-dead (Eubacterium siraeum, UniProt B0MS50, R295A;H300A;R849A;H854A)
T1 sequence: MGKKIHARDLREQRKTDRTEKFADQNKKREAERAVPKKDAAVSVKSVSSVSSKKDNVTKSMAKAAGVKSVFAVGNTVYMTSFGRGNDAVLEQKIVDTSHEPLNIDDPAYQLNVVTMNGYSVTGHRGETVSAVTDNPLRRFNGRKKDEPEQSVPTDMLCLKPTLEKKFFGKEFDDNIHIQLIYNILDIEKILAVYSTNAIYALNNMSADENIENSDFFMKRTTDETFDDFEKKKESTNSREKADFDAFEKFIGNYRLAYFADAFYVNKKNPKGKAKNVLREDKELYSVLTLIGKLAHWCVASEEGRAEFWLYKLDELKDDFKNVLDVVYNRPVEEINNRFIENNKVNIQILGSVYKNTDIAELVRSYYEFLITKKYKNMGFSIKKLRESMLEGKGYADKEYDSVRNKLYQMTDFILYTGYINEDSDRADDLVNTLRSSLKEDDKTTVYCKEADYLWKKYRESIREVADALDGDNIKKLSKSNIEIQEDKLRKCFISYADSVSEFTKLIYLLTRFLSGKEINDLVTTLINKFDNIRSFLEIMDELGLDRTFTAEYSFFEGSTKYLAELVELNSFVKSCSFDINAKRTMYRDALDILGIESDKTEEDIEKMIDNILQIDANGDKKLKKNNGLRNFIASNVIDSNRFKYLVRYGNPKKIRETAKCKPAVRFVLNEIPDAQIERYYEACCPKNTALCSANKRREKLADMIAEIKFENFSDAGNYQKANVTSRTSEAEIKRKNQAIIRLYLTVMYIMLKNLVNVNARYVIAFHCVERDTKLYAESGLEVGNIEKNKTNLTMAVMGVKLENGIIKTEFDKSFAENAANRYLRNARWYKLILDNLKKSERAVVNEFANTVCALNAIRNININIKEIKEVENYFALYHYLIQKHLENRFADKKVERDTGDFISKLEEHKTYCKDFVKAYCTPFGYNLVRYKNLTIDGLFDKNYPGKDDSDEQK

B1: target 1 insU 3' of 6,insU 3' of 2 (mixed)
RNA 1: CACCCGUGCAAAAAUGCAGGGGUCUAAAACUGAGCGGAUAACCUCUCUAUGG
RNA 2: GGGAAUGGAUCCACAUCUACGAAUUCGUACCAUAGAGAGGUUAUCCUGCUCUACCGAGAUCGGAAGAGCACACGU
B2: target 1 U3C,C21U (mixed)
RNA 1: B1 RNA 1
RNA 2: GGGAAUGGAUCCACAUCUACGAAUUCGUACUAUAGAGAGGUUAUCCGCCCACCGAGAUCGGAAGAGCACACGU
B3: target 1 C2A,U10C (mixed)
RNA 1: B1 RNA 1
RNA 2: B2 RNA 2 with U31C, U42C, C49U, C50A
B4: target 1 U10C,C22U (mixed)
RNA 1: B1 RNA 1
RNA 2: B2 RNA 2 with C30U, U31C, U42C, C49U
B5: target 1 A1C,C6U (mixed)
RNA 1: B1 RNA 1
RNA 2: B2 RNA 2 with U31C, C46U, C49U, A51C
B6: target 1 insU 3' of 15,insC 3' of 3 (mixed)
RNA 1: B1 RNA 1
RNA 2: B1 RNA 2 with A38U, G39A, U41G, A43U, U44A, C45U, U47C, U52C
B7: target 1 complement block 8-11 (mixed)
RNA 1: B1 RNA 1
RNA 2: B2 RNA 2 with U31C, U41A, U42A, A43U, U44A, C49U
B8: target 1 G5C,C7U (mixed)
RNA 1: B1 RNA 1
RNA 2: B2 RNA 2 with U31C, C45U, G47C, C49U
B9: target 1 C6U,U8C (mixed)
RNA 1: B1 RNA 1
RNA 2: B2 RNA 2 with U31C, U44C, C46U, C49U
B10: target 1 C7A,U19C (mixed)
RNA 1: B1 RNA 1
RNA 2: B2 RNA 2 with U31C, U33C, C45A, C49U
B11: target 1 insC 3' of 19,insU 3' of 1 (mixed)
RNA 1: B1 RNA 1
RNA 2: GGGAAUGGAUCCACAUCUACGAAUUCGUACCAUCAGAGAGGUUAUCCGCUCAUCCGAGAUCGGAAGAGCACACGU
B12: target 1 insC 3' of 19,insG 3' of 1 (mixed)
RNA 1: B1 RNA 1
RNA 2: B11 RNA 2 with U53G
B13: target 1 insC 3' of 19,insA 3' of 2 (mixed)
RNA 1: B1 RNA 1
RNA 2: B11 RNA 2 with U53A
B14: target 1 G5C,C6A (mixed)
RNA 1: B1 RNA 1
RNA 2: B2 RNA 2 with U31C, C46A, G47C, C49U
B15: target 1 A9G,A16U (mixed)
RNA 1: B1 RNA 1
RNA 2: B2 RNA 2 with U31C, A36U, A43G, C49U
B16: target 1 complement block 4-6 (mixed)
RNA 1: B1 RNA 1
RNA 2: B2 RNA 2 with U31C, C46G, G47C, C48G, C49U
B17: target 1 G15A,A18U (mixed)
RNA 1: B1 RNA 1
RNA 2: B2 RNA 2 with U31C, A34U, G37A, C49U
B18: target 1 C4G,C21U (mixed)
RNA 1: B1 RNA 1
RNA 2: B2 RNA 2 with C48G, C49U
B19: target 1 insA 3' of 8,insA 3' of 4 (mixed)
RNA 1: B1 RNA 1
RNA 2: B1 RNA 2 with C45A, U47C, U50A, C51U, U52C
B20: target 1 insA 3' of 13,insA 3' of 6 (mixed)
RNA 1: B1 RNA 1
RNA 2: GGGAAUGGAUCCACAUCUACGAAUUCGUACCAUAGAGAGAGUUAUCCAGCUCACCGAGAUCGGAAGAGCACACGU
B21: target 1 A9U,A20U (mixed)
RNA 1: B1 RNA 1
RNA 2: B2 RNA 2 with U31C, A32U, A43U, C49U
B22: target 1 insC 3' of 15,insU 3' of 14 (mixed)
RNA 1: B1 RNA 1
RNA 2: B20 RNA 2 with A38C, G39A, A40U, U42G, A44U, U45A, C46U, A48C
B23: target 1 C7G,A9G (mixed)
RNA 1: B1 RNA 1
RNA 2: B2 RNA 2 with U31C, A43G, C45G, C49U
B24: target 1 insC 3' of 11,insA 3' of 4 (mixed)
RNA 1: B1 RNA 1
RNA 2: B20 RNA 2 with A40G, G41U, U42C, A48G, G49C, C50A
B25: target 1 del4,del13 (mixed)
RNA 1: B1 RNA 1
RNA 2: GGGAAUGGAUCCACAUCUACGAAUUCGUACCAUAGAGAGUUAUCCGUCACCGAGAUCGGAAGAGCACACGU
B26: target 1 U3C,G12A (mixed)
RNA 1: B1 RNA 1
RNA 2: B2 RNA 2 with U31C, G40A
B27: target 1 insU 3' of 20,insG 3' of 3 (mixed)
RNA 1: B1 RNA 1
RNA 2: B11 RNA 2 with C34U, C51G, A52C, U53A
B28: target 1 insC 3' of 19,insC 3' of 1 (mixed)
RNA 1: B1 RNA 1
RNA 2: B11 RNA 2 with U53C
B29: target 1 A1G,C6U (mixed)
RNA 1: B1 RNA 1
RNA 2: B2 RNA 2 with U31C, C46U, C49U, A51G
B30: target 1 G12C,C21A (mixed)
RNA 1: B1 RNA 1
RNA 2: B2 RNA 2 with U31A, G40C, C49U
B31: target 1 insA 3' of 19,insA 3' of 12 (mixed)
RNA 1: B1 RNA 1
RNA 2: GGGAAUGGAUCCACAUCUACGAAUUCGUACCAUAAGAGAGGAUUAUCCGCUCACCGAGAUCGGAAGAGCACACGU
B32: target 1 C2G,U10C (mixed)
RNA 1: B1 RNA 1
RNA 2: B2 RNA 2 with U31C, U42C, C49U, C50G
B33: target 1 insG 3' of 7 (mixed)
RNA 1: B1 RNA 1
RNA 2: GGGAAUGGAUCCACAUCUACGAAUUCGUACCAUAGAGAGGUUAUCGCGCUCACCGAGAUCGGAAGAGCACACGU
B34: target 1 G5C,G13A (mixed)
RNA 1: B1 RNA 1
RNA 2: B2 RNA 2 with U31C, G39A, G47C, C49U

What follows are binders tested against T1, EsCas13d, nuclease-dead (assay: crRNA (strand 1, pre-loaded); Mg2+; 40 mM Tris-HCl pH 7.5, 150 mM NaCl, 6 mM MgCl2, 1 mM DTT, 0.1% Tween-20, 0.2 mg/ml BSA; 25 C; 10 min per concentration, then washed). Settings: tags: His6-TwinStrep-SUMO cleaved; N-terminal SNAP kept (SNAP-Surface 488); label: 3' end held by stalled T7 RNA polymerase.

| Binder | Kd [nM] |
| --- | --- |
| B1 | 17 ± 1.6 |
| B2 | 27 ± 7 |
| B3 | 17.8 ± 0.7 |
| B4 | 56 ± 8 |
| B5 | 9.2 ± 0.9 |
| B6 | 11.6 ± 1.1 |
| B7 | 18.2 ± 0.8 |
| B8 | 33 ± 6 |
| B9 | 15.6 ± 0.5 |
| B10 | 33.2 ± 3.5 |
| B11 | 39 ± 8 |
| B12 | 31 ± 4 |
| B13 | 33.8 ± 3.1 |
| B14 | 11.3 ± 0.8 |
| B15 | 82 ± 27 |
| B16 | 4.95 ± 0.15 |
| B17 | 58 ± 11 |

| Binder | Kd [nM] |
| --- | --- |
| B18 | 3.5 ± 0.5 |
| B19 | 8.4 ± 0.5 |
| B20 | 4.18 ± 0.24 |
| B21 | 43 ± 4 |
| B22 | 28.5 ± 2.3 |
| B23 | 14.5 ± 0.8 |
| B24 | 21.1 ± 2 |
| B25 | 16.5 ± 1.4 |
| B26 | 11.1 ± 1.1 |
| B27 | 9.4 ± 0.6 |
| B28 | 26.4 ± 3 |
| B29 | 8.9 ± 0.7 |
| B30 | 58 ± 11 |
| B31 | 54 ± 5 |
| B32 | 5.45 ± 0.29 |
| B33 | 5.5 ± 0.16 |
| B34 | 5.8 ± 0.4 |
